In the supplement of paper PMC6755084:

B1: minF1; a variant is named by its letters at N, in order (parent)
chain: GAGACCGCAACTGAAAAGTTGTTNNNNAANNNNGGNTNNATTTCTGCACGTAGAAGCAAAAGGC

Variants of: B1
Experiment: fraction ligated after 30 min (ligated reads / total reads); higher = more ligase activity
Settings: with F1*subA RNA substrate (template-directed ligation), 42 °C
Description: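 Chip-synthesised pool of minF1 ligase ribozyme variants (single and double substitutions, single to quadruple deletions, bulge and P2 designed variants) was transcribed with T7 and reacted as a pool with excess substrate F1*subA for 30 min at 42 C in 50 mM EPPS pH 8.5, 25 mM MgCl2. Ligated and unligated RNAs were separated by PAGE, barcoded by RT and deep sequenced; fraction ligated = ligated reads / total reads, relative activity = FL / FL of wild-type minF1 (0.76); sequencing FL correlated with PAGE (R2 = 0.98). Sequences are the DNA template of the ribozyme.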

| Variant | fraction ligated |
| --- | --- |
| ATCAATGGGTT A28G G34A T37G | 0.00259 |
| ATCAATGGGTT A28G G34A T37G A40G | 0.000541 |
| ATCAATGGGTT A28G G34T T37G | 0.00191 |
| ATCAATGGGTT A28G G34T T37G A40G | 0.00157 |
| ATCAATGGGTT G34A G35T T37G | 0.00168 |
| ATCAATGGGTT G34A G35T T37G A40G | 0.00189 |
| ATCAATGGGTT G34A T37G | 0.001 |
| ATCAATGGGTT G34A T37G A40G | 0.00153 |
| ATCAATGGGTT G34T T37G | 0.00279 |
| ATCAATGGGTT G34T T37G A40G | 0.00223 |
| ATCAATGGTGA | 0.0039 |
| ATCAATGGTGA A28G | 0.00319 |
| ATCAATGTGTA | 0.00707 |
| ATCAATGTGTA A28G | 0.00287 |
| ATCAATGTGTG | 0.00785 |
| ATCAATGTGTG A28G | 0.00324 |
| ATCAATGTTGA | 0.00356 |
| ATCAATGTTGA A28G | 0.0018 |
| ATCAATTGTGA | 0.00256 |
| ATCAATTGTGA A28G | 0.00238 |
| ATCAGATGTGA | 0.00333 |
| ATCAGATGTGA A28G | 0.00527 |
| ATCAGATGTGA A28G A29G | 0.00309 |
| ATCAGATGTGA A28G A29T | 0.00278 |

| Variant | fraction ligated |
| --- | --- |
| ATCAGATGTGA A28T A29G | 0.0131 |
| ATCAGATGTGA A29G | 0.0024 |
| ATCAGATGTGA A29T | 0.00586 |
| ATCAGGAGTGA | 0.00543 |
| ATCAGGAGTGA A28G | 0.0026 |
| ATCAGGAGTGA A28G A29T | 0.0016 |
| ATCAGGAGTGA A29T | 0.00323 |
| ATCAGGATGTA | 0.00297 |
| ATCAGGATGTA A28G | 0.00247 |
| ATCAGGATGTA A28G A29T | 0.00157 |
| ATCAGGATGTA A29T | 0.00407 |
| ATCAGGATGTG | 0.00943 |
| ATCAGGATGTG A28G | 0.0124 |
| ATCAGGATGTG A28G A29T | 0.00377 |
| ATCAGGATGTG A29T | 0.0272 |
| ATCAGGATTGA | 0.00379 |
| ATCAGGATTGA A28G | 0.0019 |
| ATCAGGATTGA A28G A29T | 0.00153 |
| ATCAGGATTGA A29T | 0.00634 |
| ATCAGGTGTGA | 0.00443 |
| ATCAGGTGTGA A28G | 0.00256 |
| ATCAGGTGTGA A28G A29T | 0.00216 |
| ATCAGGTGTGA A29T | 0.00874 |
| ATCATATGTGA | 0.00281 |

| Variant | fraction ligated |
| --- | --- |
| ATCATATGTGA A28G | 0.00411 |
| ATCATGAGTGA | 0.00331 |
| ATCATGAGTGA A28G | 0.00204 |
| ATCATGATGTA | 0.00345 |
| ATCATGATGTA A28G | 0.00257 |
| ATCATGATGTG | 0.0143 |
| ATCATGATGTG A28G | 0.0138 |
| ATCATGATTGA | 0.00257 |
| ATCATGATTGA A28G | 0.00281 |
| ATCATGGAGTA | 0.00426 |
| ATCATGGAGTA A28G | 0.00253 |
| ATCATGGAGTA A28G G34T | 0.00586 |
| ATCATGGAGTA G34T | 0.00594 |
| ATCATGGAGTG | 0.00597 |
| ATCATGGAGTG A28G | 0.00442 |
| ATCATGGAGTG A28G G34T | 0.0152 |
| ATCATGGAGTG G34T | 0.0119 |
| ATCATGGAGTT A28G G34T T37G | 0.00165 |
| ATCATGGAGTT A28G G34T T37G A40G | 0.00132 |
| ATCATGGAGTT G34T T37G | 0.00293 |
| ATCATGGAGTT G34T T37G A40G | 0.00188 |
| ATCATGGATGA | 0.00299 |
| ATCATGGATGA A28G | 0.00362 |
| ATCATGGGTGA | 0.00433 |

| Variant | fraction ligated |
| --- | --- |
| ATCATGGGTGA A28G | 0.00379 |
| ATCATGGTGTA | 0.00395 |
| ATCATGGTGTA A28G | 0.0034 |
| ATCATGGTGTG | 0.00925 |
| ATCATGGTGTG A28G | 0.0033 |
| ATCATGGTTGA | 0.0043 |
| ATCATGGTTGA A28G | 0.00132 |
| ATCATGTGTGA | 0.00648 |
| ATCATGTGTGA A28G | 0.00186 |
| ATCGAATGTGA | 0.00581 |
| ATCGAGAGTGA | 0.00383 |
| ATCGAGATGTA | 0.00349 |
| ATCGAGATGTG | 0.0313 |
| ATCGAGATTGA | 0.00372 |
| ATCGAGGAGTA | 0.00327 |
| ATCGAGGAGTA G34T | 0.00121 |
| ATCGAGGAGTG | 0.0042 |
| ATCGAGGAGTG G34T | 0.00393 |
| ATCGAGGAGTT G34T T37G | 0.00239 |
| ATCGAGGAGTT G34T T37G A40G | 0.000736 |
| ATCGAGGATGA | 0.00383 |
| ATCGAGGGTGA | 0.00167 |
| ATCGAGGTGTA | 0.00324 |
| ATCGAGGTGTG | 0.00858 |

| Variant | fraction ligated |
| --- | --- |
| ATCGAGGTTGA | 0.00313 |
| ATCGAGTGTGA | 0.00242 |
| ATCGATAGTGA | 0.00296 |
| ATCGATATGTA | 0.0031 |
| ATCGATATGTG | 0.00524 |
| ATCGATATTGA | 0.00165 |
| ATCGATGAGTA | 0.00221 |
| ATCGATGAGTA G34T | 0.00167 |
| ATCGATGAGTG | 0.00474 |
| ATCGATGAGTG G34T | 0.0033 |
| ATCGATGAGTT G34T T37G | 0.00178 |
| ATCGATGAGTT G34T T37G A40G | 0.00104 |
| ATCGATGATGA | 0.00308 |
| ATCGATGGGGT G34A G35T T37G A40T | 0.00147 |
| ATCGATGGGTA | 0.000742 |
| ATCGATGGGTA G34A | 0.00165 |
| ATCGATGGGTA G34T | 0.00207 |
| ATCGATGGGTG | 0.00493 |
| ATCGATGGGTG G34A | 0.00444 |
| ATCGATGGGTG G34T | 0.00494 |
| ATCGATGGGTT G34A G35T T37G | 0.00178 |
| ATCGATGGGTT G34A G35T T37G A40G | 0.000298 |
| ATCGATGGGTT G34A T37G | 0.00243 |
| ATCGATGGGTT G34A T37G A40G | 0.00135 |

| Variant | fraction ligated |
| --- | --- |
| ATCGATGGGTT G34T T37G | 0.00156 |
| ATCGATGGGTT G34T T37G A40G | 0.00104 |
| ATCGATGGTGA | 0.00498 |
| ATCGATGTGTA | 0.00271 |
| ATCGATGTGTG | 0.00543 |
| ATCGATGTTGA | 0.00239 |
| ATCGATTGTGA | 0.00257 |
| ATCGGATGTGA | 0.00494 |
| ATCGGATGTGA A28T A29G | 0.012 |
| ATCGGATGTGA A29G | 0.00359 |
| ATCGGATGTGA A29T | 0.00285 |
| ATCGGGAGTGA | 0.00227 |
| ATCGGGAGTGA A29T | 0.00273 |
| ATCGGGATGTA | 0.00428 |
| ATCGGGATGTA A29T | 0.00281 |
| ATCGGGATGTG | 0.0285 |
| ATCGGGATGTG A29T | 0.0354 |
| ATCGGGATTGA | 0.00341 |
| ATCGGGATTGA A29T | 0.00409 |
| ATCGGGTGTGA | 0.00323 |
| ATCGGGTGTGA A29T | 0.00298 |
| ATCGTATGTGA | 0.00154 |
| ATCGTGAGTGA | 0.00262 |
| ATCGTGATGTA | 0.00285 |

| Variant | fraction ligated |
| --- | --- |
| ATCGTGATGTG | 0.0261 |
| ATCGTGATTGA | 0.00326 |
| ATCGTGGAGTA | 0.00217 |
| ATCGTGGAGTA G34T | 0.0058 |
| ATCGTGGAGTG | 0.00496 |
| ATCGTGGAGTG G34T | 0.0139 |
| ATCGTGGAGTT G34T T37G | 0.00145 |
| ATCGTGGAGTT G34T T37G A40G | 0.00133 |
| ATCGTGGATGA | 0.00177 |
| ATCGTGGGTGA | 0.00142 |
| ATCGTGGTGTA | 0.00478 |
| ATCGTGGTGTG | 0.00802 |
| ATCGTGGTTGA | 0.00112 |
| ATCGTGTGTGA | 0.00325 |
| ATGAGATGTGA | 0.00646 |
| ATGAGATGTGA A28T A29G | 0.016 |
| ATGAGATGTGA A29G | 0.00416 |
| ATGAGATGTGA A29T | 0.00278 |
| ATGAGGAGTGA | 0.00532 |
| ATGAGGAGTGA A29T | 0.0018 |
| ATGAGGATGTA | 0.00328 |
| ATGAGGATGTA A29T | 0.00295 |
| ATGAGGATGTG | 0.00619 |
